Results reported in patent publication US20230346885A1 (published 2023).
Values belong to the binder of their own block, whether it stands above or below them.

What was measured:
Assay in all cases: binding, other
MAGEC1 peptide on HLA [1] = biological target: T1, MAGEC1 peptide on HLA (human)
T1 peptide: FLAMLKNTV

NR0B1 peptide on HLA [2] = biological target: T2, NR0B1 peptide on HLA (human)
T2 peptide: GLPGGRPVAL

MAGEB2 peptide on HLA = biological target: T3, MAGEB2 peptide on HLA (human)
T3 peptide: KVLEFLAKV

NPSR1 peptide on HLA = biological target: T4, NPSR1 peptide on HLA (human)
T4 peptide: VIIQNLPAL

KLK4 peptide on HLA = biological target: T5, KLK4 peptide on HLA (human)
T5 peptide: FQNSYTIGL

NR0B1 peptide on HLA [3] = biological target: T6, NR0B1 peptide on HLA (human)
T6 peptide: GLLKTLRFV

MAGEC1 peptide on HLA [4] = biological target: T7, MAGEC1 peptide on HLA (human)
T7 peptide: ILQSSPESA

PAEP peptide on HLA = biological target: T8, PAEP peptide on HLA (human)
T8 peptide: AMATNNISL

B1: TCR of SEQ ID NOs 433 and 434 (TCR, V domains shown)
Valpha: KQEVTQIPAALSVPEGENLVLNCSFTDSAIYNLQWFRQDPGKGLTSLLLIQSSQREQTSGRLNASLDKSSGRSTLYIAASQPGDSATYLCAVESGNQFYFGTGTSLTVIP
Vbeta: NAGVTQTPKFQVLKTGQSMTLQCAQDMNHEYMSWYRQDPGMGLRLIHYSVGVGITDQGEVPNGYNVSRSTTEDFPLRLLSAAPSQTSVYFCASSFGQGSSPLHFGNGTRLTVT
binding result (MAGEC1 peptide on HLA [1]): recognises

B2: TCR of SEQ ID NOs 455 and 456 (TCR, V domains shown)
Valpha: KQEVTQIPAALSVPEGENLVLNCSFTDSAIYNLQWFRQDPGKGLTSLLLIQSSQREQTSGRLNASLDKSSGRSTLYIAASQPGDSATYLCAVRGYQKVTFGTGTKLQVIP
Vbeta: NAGVTQTPKFQVLKTGQSMTLQCAQDMNHEYMSWYRQDPGMGLRLIHYSVGAGITDQGEVPNGYNVSRSTTEDFPLRLLSAAPSQTSVYFCATSGLNTEAFFGQGTRLTVV
binding result (NR0B1 peptide on HLA [2]): recognises

B3: TCR of SEQ ID NOs 421 and 422 (TCR, V domains shown)
Valpha: KQEVTQIPAALSVPEGENLVLNCSFTDSAIYNLQWFRQDPGKGLTSLLLIQSSQREQTSGRLNASLDKSSGRSTLYIAASQPGDSATYLCAVESDDYKLSFGAGTTVTVRA
Vbeta: NAGVTQTPKFQVLKTGQSMTLQCAQDMNHNSMYWYRQDPGMGLRLIYYSASEGTTDKGEVPNGYNVSRLNKREFSLRLESAAPSQTSVYFCASSEALGGVTDTQYFGPGTRLTVL
binding result (MAGEB2 peptide on HLA): recognises

B4: TCR of SEQ ID NOs 457 and 458 (TCR, V domains shown)
Valpha: KQEVTQIPAALSVPEGENLVLNCSFTDSAIYNLQWFRQDPGKGLTSLLLIQSSQREQTSGRLNASLDKSSGRSTLYIAASQPGDSATYLCAVSGYSTLTFGKGTMLLVSP
Vbeta: NAGVTQTPKFRVLKTGQSMTLLCAQDMNHEYMYWYRQDPGMGLRLIHYSVGEGTTAKGEVPDGYNVSRLKKQNFLLGLESAAPSQTSVYFCASTGGGPPLNTEAFFGQGTRLTVV
binding result (NR0B1 peptide on HLA [2]): recognises

B5: TCR of SEQ ID NOs 445 and 446 (TCR, V domains shown)
Valpha: KQEVTQIPAALSVPEGENLVLNCSFTDSAIYNLQWFRQDPGKGLTSLLLIQSSQREQTSGRLNASLDKSSGRSTLYIAASQPGDSATYLCAVSPVTSYDKVIFGPGTSLSVIP
Vbeta: NAGVTQTPKFRVLKTGQSMTLLCAQDMNHEYMYWYRQDPGMGLRLIYYSASEGTTDKGEVPNGYNVSRLNKREFSLRLESAAPSQTSVYFCASSYSWFGDGTEAFFGQGTRLTVV
binding result (NPSR1 peptide on HLA): recognises

B6: TCR of SEQ ID NOs 409 and 410 (TCR, V domains shown)
Valpha: KQEVTQIPAALSVPEGENLVLNCSFTDSAIYNLQWFRQDPGKGLTSLLLIQSSQREQTSGRLNASLDKSSGRSTLYIAASQPGDSATYLCAVTAYNTDKLIFGTGTRLQVFP
Vbeta: NAGVTQTPKFRILKIGQSMTLQCTQDMNHNYMYWYRQDPGMGLKLIYYSVGAGITDKGEVPNGYNVSRSTTEDFPLRLLSAAPSQTSVYFCASSYYPGTSTEAFFGQGTRLTVV
binding result (KLK4 peptide on HLA): recognises

B7: TCR of SEQ ID NOs 435 and 436 (TCR, V domains shown)
Valpha: KQEVTQIPAALSVPEGENLVLNCSFTDSAIYNLQWFRQDPGKGLTSLLLIQSSQREQTSGRLNASLDKSSGRSTLYIAASQPGDSATYLCAALSYNTDKLIFGTGTRLQVFP
Vbeta: NAGVTQTPKFRVLKTGQSMTLLCAQDMNHEYMYWYRQDPGMGLRLIHYSVGEGTTAKGEVPDGYNVSRLKKQNFLLGLESAAPSQTSVYFCASKDIPYTEAFFGQGTRLTVV
binding result (MAGEC1 peptide on HLA [1]): recognises

B8: TCR of SEQ ID NOs 419 and 420 (TCR, V domains shown)
Valpha: KQEVTQIPAALSVPEGENLVLNCSFTDSAIYNLQWFRQDPGKGLTSLLLIQSSQREQTSGRLNASLDKSSGRSTLYIAASQPGDSATYLCAVSGGTTDSWGKLQFGAGTQVVVTP
Vbeta: NAGVTQTPKFQVLKTGQSMTLQCAQDMNHEYMSWYRQDPGMGLRLIHYSVGAGITDQGEVPNGYNVSRSTTEDFPLRLLSAAPSQTSVYFCASSFTPYEGYTFGSGTRLTVV
binding result (MAGEB2 peptide on HLA): recognises

B9: TCR of SEQ ID NOs 453 and 454 (TCR, V domains shown)
Valpha: KQEVTQIPAALSVPEGENLVLNCSFTDSAIYNLQWFRQDPGKGLTSLLLIQSSQREQTSGRLNASLDKSSGRSTLYIAASQPGDSATYLCAVGTDSWGKFQFGAGTQVVVTP
Vbeta: NAGVTQTPKFQVLKTGQSMTLQCAQDMNHEYMSWYRQDPGMGLRLIHYSVGAGITDQGEVPNGYNVSRSTTEDFPLRLLSAAPSQTSVYFCASSFSPNTEAFFGQGTRLTVV
binding result (NR0B1 peptide on HLA [3]): recognises

B10: TCR of SEQ ID NOs 423 and 424 (TCR, V domains shown)
Valpha: KQEVTQIPAALSVPEGENLVLNCSFTDSAIYNLQWFRQDPGKGLTSLLLIQSSQREQTSGRLNASLDKSSGRSTLYIAASQPGDSATYLCAVSGGATDSWGKLQFGAGTQVVVTP
Vbeta: NAGVTQTPKFQVLKTGQSMTLQCAQDMNHEYMSWYRQDPGMGLRLIHYSVGAGITDQGEVPNGYNVSRSTTEDFPLRLLSAAPSQTSVYFCASSYSPWTEAFFGQGTRLTVV
binding result (MAGEB2 peptide on HLA): recognises

B11: TCR of SEQ ID NOs 459 and 460 (TCR, V domains shown)
Valpha: KQEVTQIPAALSVPEGENLVLNCSFTDSAIYNLQWFRQDPGKGLTSLLLIQSSQREQTSGRLNASLDKSSGRSTLYIAASQPGDSATYLCAASGYSTLTFGKGTMLLVSP
Vbeta: NAGVTQTPKFQVLKTGQSMTLQCAQDMNHEYMSWYRQDPGMGLRLIHYSVGAGITDQGEVPNGYNVSRSTTEDFPLRLLSAAPSQTSVYFCASRLGQFGQAFFGQGTRLTVV
binding result (NR0B1 peptide on HLA [2]): recognises

Next, values leading:

binding result (NR0B1 peptide on HLA [3]): recognises
B12: TCR of SEQ ID NOs 451 and 452 (TCR, V domains shown)
Valpha: KQEVTQIPAALSVPEGENLVLNCSFTDSAIYNLQWFRQDPGKGLTSLLLIQSSQREQTSGRLNASLDKSSGRSTLYIAASQPGDSATYLCAVGTDSWGKFQFGAGTQVVVTP
Vbeta: NAGVTQTPKFQVLKTGQSMTLQCAQDMNHEYMSWYRQDPGMGLRLIHYSVGAGITDQGEVPNGYNVSRSTTEDFPLRLLSAAPSQTSVYFCASSYSVDSPLHFGNGTRLSVL

binding result (MAGEC1 peptide on HLA [4]): recognises
B13: TCR of SEQ ID NOs 429 and 430 (TCR, V domains shown)
Valpha: KQEVTQIPAALSVPEGENLVLNCSFTDSAIYNLQWFRQDPGKGLTSLLLIQSSQREQTSGRLNASLDKSSGRSTLYIAASQPGDSATYLCAVRPFSGGYNKLIFGAGTRLAVHP
Vbeta: NAGVTQTPKFQVLKTGQSMTLQCTQDMNHNYMYWYRQDPGMGLKLIYYSVGAGITDQGEVPNGYNVSRSTTEDFPLRLLSAAPSQTSVYFCASSPEYGYYEQYFGPGTRLTVT

binding result (PAEP peptide on HLA): recognises
B14: TCR of SEQ ID NOs 461 and 462 (TCR, V domains shown)
Valpha: KQEVTQIPAALSVPEGENLVLNCSFTDSAIYNLQWFRQDPGKGLTSLLLIQSSQREQTSGRLNASLDKSSGRSTLYIAASQPGDSATYLCAVSRSWGKFQFGAGTQVVVTP
Vbeta: NAGVTQTPKFQVLKTGQSMTLQCAQDMNHEYMSWYRQDPGMGLRLIHYSVGAGITDQGEVPNGYNVSRLNKREFSLRLESAAPSQTSVYFCASSLTGGAEYGYTFGSGTRLTVV

binding result (NPSR1 peptide on HLA): recognises
B15: TCR of SEQ ID NOs 443 and 444 (TCR, V domains shown)
Valpha: QKEVEQNSGPLSVPEGAIASLNCTYSDRGSQSFFWYRQYSGKSPELIMSIYSNGDKEDGRFTAQLNKASQYVSLLIRDSQPSDSATYLCAVNDSWGKLQFGAGTQVVVTP
Vbeta: DGGITQSPKYLFRKEGQNVTLSCEQNLNHDAMYWYRQDPGQGLRLIYYSQIVNDFQKGDIAEGYSVSREKKESFPLTVTSAQKNPTAFYLCASSMVPGFSEQFFGPGTRLTVL

binding result (NPSR1 peptide on HLA): recognises
B16: TCR of SEQ ID NOs 447 and 448 (TCR, V domains shown)
Valpha: QKEVEQNSGPLSVPEGAIASLNCTYSDRGSQSFFWYRQYSGKSPELIMSIYSNGDKEDGRFTAQLNKASQYVSLLIRDSQPSDSATYLCAVSAAGNKLTFGGGTRVLVKP
Vbeta: NAGVTQTPKFRILKIGQSMTLQCTQDMNHNYMYWYRQDPGMGLKLIYYSAGAGITDKGEVPNGYNVSRSTTEDFPLRLELAAPSQTSVYFCASSYFGEQYFGPGTRLTVT

binding result (KLK4 peptide on HLA): recognises
B17: TCR of SEQ ID NOs 411 and 412 (TCR, V domains shown)
Valpha: KQEVTQIPAALSVPEGENLVLNCSFTDSAIYNLQWFRQDPGKGLTSLLLIQSSQREQTSGRLNASLDKSSGRSTLYIAASQPGDSATYLCAVSGGSYIPTFGRGTSLIVHP
Vbeta: NAGVTQTPKFRVLKTGQSMTLLCAQDMNHEYMYWYRQDPGMGLRLIHYSVGEGTTDKGEVPDGYNVSRSTTEDFPLRLLSAAPSQTSVYFCASRKAGYGYTFGSGTRLTVV

binding result (NR0B1 peptide on HLA [3]): recognises
B18: TCR of SEQ ID NOs 449 and 450 (TCR, V domains shown)
Valpha: KQEVTQIPAALSVPEGENLVLNCSFTDSAIYNLQWFRQDPGKGLTSLLLIQSSQREQTSGRLNASLDKSSGRSTLYIAASQPGDSATYLCAVRPGDSWGKLQFGAGTQVVVTP
Vbeta: NAGVTQTPKFQVLKTGQSMTLQCAQDMNHEYMSWYRQDPGMGLKLIYYSVGAGITDKGEVPNGYNVSRSTTEDFPLRLLSAAPSQTSVYFCASSSPVGTAFFGQGTRLTVV

binding result (MAGEC1 peptide on HLA [4]): recognises
B19: TCR of SEQ ID NOs 425 and 426 (TCR, V domains shown)
Valpha: KQEVTQIPAALSVPEGENLVLNCSFTDSAIYNLQWFRQDPGKGLTSLLLIQSSQREQTSGRLNASLDKSSGRSTLYIAASQPGDSATYLCAVRDDYKLSFGAGTTVTVRA
Vbeta: NAGVTQTPKFRVLKTGQSMTLLCAQDMNHEYMYWYRQDPGMGLRLIHYSVGEGTTAKGEVPDGYNVSRLKKQNFLLGLESAAPSQTSVYFCASSYGPGQIYGYTFGSGTRLTVV

binding result (MAGEC1 peptide on HLA [1]): recognises
B20: TCR of SEQ ID NOs 431 and 432 (TCR, V domains shown)
Valpha: KQEVTQIPAALSVPEGENLVLNCSFTDSAIYNLQWFRQDPGKGLTSLLLIQSSQREQTSGRLNASLDKSSGRSTLYIAASQPGDSATYLCAVGGYNKLIFGAGTRLAVHP
Vbeta: NAGVTQTPKFQVLKTGQSMTLQCAQDMNHNSMYWYRQDPGMGLRLIYYSASEGTTDKGEVPNGYNVSRSTTEDFPLRLLSAAPSQTSVYFCASSLDPLAEAFFGQGTRLTVV

binding result (MAGEC1 peptide on HLA [4]): recognises
B21: TCR of SEQ ID NOs 427 and 428 (TCR, V domains shown)
Valpha: KQEVTQIPAALSVPEGENLVLNCSFTDSAIYNLQWFRQDPGKGLTSLLLIQSSQREQTSGRLNASLDKSSGRSTLYIAASQPGDSATYLCAVRNDYKLSFGAGTTVTVRA
Vbeta: NAGVTQTPKFRVLKTGQSMTLLCAQDMNHEYMYWYRQDPGMGLRLIHYSVGEGTTAKGEVPDGYNVSRLKKQNFLLGLESAAPSQTSVYFCASSYGPGQIYGYTFGPGTRLTVL
